# According to patent US20150057236:
# Marks after values point to notes of the source that are not given here.
# Experiments:
# [1] = molecular target: H3 K9 (4-13 + WW) malonyl peptide (UniProt P68431)
# [2] = tested on: ACS2 K628 (623-632 + WW) acetyl peptide
# [3] = molecular target: GDH K503 (498-509 + WW) acetyl peptide (UniProt P00367)
# [4] = molecular target: H3 K9 (4-13 + WW) acetyl peptide (UniProt P68431)
# [5] = molecular target: GDH K503 (498-509 + WW) succinyl peptide (UniProt P00367)
# [6] = tested on: ACS2 K628 (623-632 + WW) malonyl peptide
# [7] = molecular target: H3 K9 (4-13 + WW) succinyl peptide (UniProt P68431)
# [8] = tested on: ACS2 K628 (623-632 + WW) succinyl peptide
# [9] = molecular target: GDH K503 (498-509 + WW) malonyl peptide (UniProt P00367)
# Chain of human Sirt5 (chain, as listed by the source): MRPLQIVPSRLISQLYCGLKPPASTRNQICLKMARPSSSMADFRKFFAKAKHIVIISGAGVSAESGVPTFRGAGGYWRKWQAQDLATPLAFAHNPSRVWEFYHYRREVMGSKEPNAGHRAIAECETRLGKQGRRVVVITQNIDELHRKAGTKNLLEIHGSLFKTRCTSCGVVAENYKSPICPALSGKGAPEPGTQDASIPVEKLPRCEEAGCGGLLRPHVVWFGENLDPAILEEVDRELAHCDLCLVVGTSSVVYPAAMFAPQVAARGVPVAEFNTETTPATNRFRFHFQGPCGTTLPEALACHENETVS
# Chain of Sirt5 R105M (chain, as listed by the source R105M): as the sequence (chain, as listed by the source) above, with R105M counted along it
# Chain of Sirt5 Y102F (chain, as listed by the source Y102F): as the sequence (chain, as listed by the source) above, with Y102F counted along it
# Chain of Sirt5 H158Y (chain, as listed by the source H158Y): as the sequence (chain, as listed by the source) above, with H158Y counted along it
substance,measurement,setting,value
Sirt5 Y102F,"Km for peptide (µM), deacetylation",H3K9 acetyl peptide,ND (>750)*
same,"kcat/Km (s^-1M^-1), deacetylation",H3K9 acetyl peptide,2 s^-1M^-1
same,"Km for peptide (µM), desuccinylation",H3K9 succinyl peptide,ND (>750)*
same,"kcat/Km (s^-1M^-1), desuccinylation",H3K9 succinyl peptide,397 s^-1M^-1
Sirt5 R105M,"Km for peptide (µM), deacetylation",H3K9 acetyl peptide,ND (>750)*
same,"kcat/Km (s^-1M^-1), deacetylation",H3K9 acetyl peptide,0.5 s^-1M^-1
same,"Km for peptide (µM), desuccinylation",H3K9 succinyl peptide,ND (>750)*
same,"kcat/Km (s^-1M^-1), desuccinylation",H3K9 succinyl peptide,0.9 s^-1M^-1
Sirt5 H158Y,"Km for peptide (µM), desuccinylation",H3K9 succinyl peptide,ND (>750)*
same,"kcat/Km (s^-1M^-1), desuccinylation",H3K9 succinyl peptide,75 s^-1M^-1
human Sirt6,hydrolysis of acyl peptide (LC-MS),H3K9 acetyl peptide,"Sirt6 and Sirt7 have no detectable activity on acetyl, malonyl, or succinyl peptides under the conditions tested"
same,hydrolysis of acyl peptide (LC-MS),H3K9 succinyl peptide,"Sirt6 and Sirt7 have no detectable activity on acetyl, malonyl, or succinyl peptides under the conditions tested"
same,hydrolysis of acyl peptide (LC-MS),H3K9 malonyl peptide,"Sirt6 and Sirt7 have no detectable activity on acetyl, malonyl, or succinyl peptides under the conditions tested"
human Sirt5,"Peptide Km (µM), demalonylation",[1],6.1 µM
same,"kcat (s^-1), demalonylation",[1],0.037 s⁻¹
same,"kcat/Km (s^-1M^-1), demalonylation",[1],6100 s^-1M^-1
same,Km for acetyl peptide (µM),H3K9 acetyl peptide,ND (>750)*
same,"Km for peptide (µM), deacetylation",H3K9 acetyl peptide,ND (>750)*
same,hydrolysis of acyl peptide (LC-MS),H3K9 acetyl peptide,"with Sirt5, very little hydrolysis of the acetyl peptide was observed"
same,kcat/Km (s^-1M^-1),H3K9 acetyl peptide,2 s^-1M^-1
same,"kcat/Km (s^-1M^-1), deacetylation",H3K9 acetyl peptide,2 s^-1M^-1
same,"Km for peptide (µM), desuccinylation",H3K9 succinyl peptide,41 µM
same,hydrolysis of acyl peptide (LC-MS),H3K9 succinyl peptide,the malonyl and succinyl peptides were hydrolyzed significantly
same,"kcat (s^-1), desuccinylation",H3K9 succinyl peptide,0.029 s⁻¹
same,"kcat/Km (s^-1M^-1), desuccinylation",H3K9 succinyl peptide,710 s^-1M^-1
same,"Peptide Km (µM), deacetylation",[2],ND (>750)
same,"kcat/Km (s^-1M^-1), deacetylation",[2],18 s^-1M^-1
same,"Peptide Km (µM), deacetylation",[3],ND (>750)
same,"kcat/Km (s^-1M^-1), deacetylation",[3],< 2 s^-1M^-1
same,"Peptide Km (µM), deacetylation",[4],ND (>750)
same,"kcat/Km (s^-1M^-1), deacetylation",[4],7.8 s^-1M^-1
same,hydrolysis of acyl peptide (LC-MS),H3K9 malonyl peptide,the malonyl and succinyl peptides were hydrolyzed significantly
same,"Peptide Km (µM), desuccinylation",[5],14 µM
same,"kcat (s^-1), desuccinylation",[5],0.028 s⁻¹
same,"kcat/Km (s^-1M^-1), desuccinylation",[5],2000 s^-1M^-1
same,"Peptide Km (µM), demalonylation",[6],150 µM
same,"kcat (s^-1), demalonylation",[6],0.079 s⁻¹
same,"kcat/Km (s^-1M^-1), demalonylation",[6],520 s^-1M^-1
same,"Peptide Km (µM), desuccinylation",[7],5.8 µM
same,"kcat (s^-1), desuccinylation",[7],0.025 s⁻¹
same,"kcat/Km (s^-1M^-1), desuccinylation",[7],4300 s^-1M^-1
same,"Peptide Km (µM), desuccinylation",[8],450 µM
same,"kcat (s^-1), desuccinylation",[8],0.268 s⁻¹
same,"kcat/Km (s^-1M^-1), desuccinylation",[8],600 s^-1M^-1
same,"Peptide Km (µM), demalonylation",[9],8.7 µM
same,"kcat (s^-1), demalonylation",[9],0.014 s⁻¹
same,"kcat/Km (s^-1M^-1), demalonylation",[9],1600 s^-1M^-1
same,"percent hydrolysis in 3 hrs, 1 µM Sirt5 (HPLC)",KQTAR(SuK)-AMC peptide,10% and 60% hydrolysis by 1 and 5 µM of Sirt5 in 3 hrs
same,"percent hydrolysis in 3 hrs, 5 µM Sirt5 (HPLC)",KQTAR(SuK)-AMC peptide,10% and 60% hydrolysis by 1 and 5 µM of Sirt5 in 3 hrs
